Reference: the supplement of paper PMC9170038

Tested on: K4 kissing-loop RNA reporter
Test: apparent KD of K4 kissing-loop reporter; higher = weaker reporter binding
Details: Eterna round: R107
Description: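 RNA-MaP round R107: designed RNA switches with theophylline, tryptophan, arginine or FMN aptamers are transcribed on-chip within common flanks. They are titrated with a labelled K4 kissing-loop RNA reporter in RNA-MaP buffer (100 mM Tris pH 7.5, 80 mM KCl, 4 mM MgCl2), without ligand or with the indicated ligand. Median apparent KD per design.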

[1] = input ligand: theophylline 20 uM
[2] = input ligand: tryptophan 2.4 mM
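Note: bound reporter read as fluorescence of individual clusters on recovered sequencing chips by microscopy, with normalized cluster intensities fitted with a binding model.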

Row | Sequence | apparent KD of K4 kissing-loop reporter (input ligand: FMN 200 uM) | apparent KD of K4 kissing-loop reporter (input ligand: arginine 13.2 mM) | apparent KD of K4 kissing-loop reporter (input ligand: none) | apparent KD of K4 kissing-loop reporter [1] | apparent KD of K4 kissing-loop reporter [2]
1 | UGAUUGCCAGUGAUGUUGGCAUAAACUGAAGGAGCGCGUGAAAACGCAGGUAGGUCGCAGUACCAUGCCAAUUGAUCGAAAGAUC [KL-XArg-A2] | 143 nM | 150 nM | 155 nM | 169 nM | 141 nM
2 | UGAUUGGCAAAAGUAGUGAUGUUACGAAUAUAGGAUAUUAGAGGAAUAAGAAGGAUAAGGGAGAAAUAGGUAAAUUGUUGGUUGG [whbob_SS_FMNA__2th171] | 45.6 nM | 48.4 nM | 285 nM | 150 nM | 70.3 nM
3 | UGAUUGGCGAAAGUAGUGAUGUUACGAAUAUAGGAUAUUAGAGGAAUAAGAAGGAUAAGGGAGAAAUAGGUAAAUUGUUGGUUGG [whbob_SS_FMNA__2th170] | 132 nM | 79.7 nM | 128 nM | 126 nM | 100 nM
4 | UGCCGCAAGGCGAGCGCUCCCACUCCGGAAGGAGCGCCCGCAAGGGCAGGUAGGUCGCCGGAGUGAUGUUCCGGUGGAGGGCUCG [#2 Exclusion - Arginine A Attempt #25 (Inspired by Omei)] | 201 nM | 188 nM | 174 nM | 164 nM | 157 nM
5 | UGGAGUUGACGAAAAGUCAACUCCAGAGAAGGAGCGGACGAAAGUCCAGGUAGGUCGCUCACUACCAGUGAUGUUGGUACUUAAA | 68.4 nM | 243 nM | 170 nM | 137 nM | 139 nM
6 | UGGAUAUAGUGAUGUUAUAUAGAGAUGGAUACCAGCGAAGAGAAUUGCCCUUGGCAGCCGAAAGAAGUAUCAUUAGAGAAGAAUG [ExTheophyl.Ah] | 254 nM | 213 nM | 252 nM | 261 nM | 186 nM
7 | UGGAUAUCGUUUAGUCUGGUGAGCUCAGAUACCAGACUAGCGAUAGUCCCUUGGCAGCUGAUUAUGAUUGAGUGAUGUUCAAUCG [Theo A Ex t9b] | 168 nM | 142 nM | 168 nM | 151 nM | 157 nM
8 | UGGGAUGUUAAAGGAUAUAGCAGGUGAUAUAAGAAAGUGAGUGAUGUUUAUGUAGAUGAUGAUAUGUUAGAAGGUUAACAAAACG [abcdefghi] | 427 nM | 258 nM | 340 nM | 318 nM | 282 nM
9 | UGGGUGUAGUGAUGUUAUAUAGAGAGUGAUACCAGUUUAGAGAGGAACCCUUGGCAGCAUAGAAGAGUAUCAUUGGAGGAGGAGG [ExTheophyl.Aw] | 677 nM | 505 nM | 696 nM | 606 nM | 433 nM
10 | UGUACCGAGUCAGGAUAUCAUAAUAAAUGCAGUGAUGUUGCAAUAACCAGUACAAAAGUGCUGGAUUGAGAAGGGACUUGGUACU [FmnBS 5 #SwitchBubble #StaticStem] | 99 nM | 126 nM | 126 nM | 119 nM | 112 nM
11 | UGUACCGAGUCAGGAUAUGGCCGGAAACGGAAUAACCAGUGAUGUUGGAAUAAAUGGCGAAAGCCUCCAGAAGGGACUUGGUACU [FmnBS 18 #SwitchBubble #StaticStem #DoubleMagnetSystem] | 158 nM | 213 nM | 211 nM | 212 nM | 185 nM
12 | UGUACCGAGUCAGGAUAUGGCGUCGAAAGACGAAUCCUAGUGAUGUUAGCGAUCUGCGAAAGCAGUCCAGAAGGGACUUGGUACU [FmnBS 26 C50] | 219 nM | 338 nM | 438 nM | 371 nM | 290 nM
13 | UGUACCGAGUCAGGAUAUGGCGUCGAAAGACGAAUUCUAGUGAUGUUAGGGAUCUGCGAAAGCAGUCCAGAAGGGACUUGGUACU [FmnBS 26 U36] | 322 nM | 439 nM | 607 nM | 692 nM | 542 nM
14 | UGUACCGAGUCAGGAUAUGGUAUACCGGAAACGGACCAGUGAUGUUGGAGGCGAAAGCCAUAAAAUCCAGAAGGGACUUGGUACU [FmnBS 19 #SwitchBubble #StaticStem #DoubleMagnetSystem] | 223 nM | 569 nM | 614 nM | 893 nM | 411 nM
15 | UGUACCGAGUCAGGAUAUGUCGUCGAAAGACGAAAUGGAGUGAUGUUCCUUAAACUGCGAAAGCAGACAGAAGGGACUUGGUACU [FmnBS 29 #SwitchBubble #StaticStem #DoubleMagnetSystem] | 160 nM | 278 nM | 385 nM | 331 nM | 274 nM
16 | UGUAUGGACUGAAGGAGCGCUAGGAGUGUGAGUGAUGUUCAUACAAAUGUAUAGAUGGUCUGGCAGGUAGGUCGCAGUCCAUACU [KL-SSArg B4] | 258 nM | 145 nM | 203 nM | 156 nM | 184 nM
17 | UGUCAUGGAAACAUGAACGUUGAAAUAAGACGAGGACCGGUACGGCCGCCACUCGAAUAAUGGUCAGUGAUGUUGACUGGAAUAA [KL-SSTryp-A form1 sub7 #dotplot2>1] | 60.5 nM | 104 nM | 70.3 nM | 103 nM | 61.3 nM
18 | UGUCAUGGAAACAUGAACGUUGAAAUAUGACGAGGACCGGUACGGCCGCCACUCGAGUAAUGGUCAGUGAUGUUGACUGGAUUAA [KL-SSTryp-A form1 sub5 #split stat1] | 59.9 nM | 110 nM | 81.9 nM | 103 nM | 51.9 nM
19 | UGUCAUUGGUCGGCCGCCACUAGAAGGUCAAAGACCAUAGAGUGAUGUUCUAAGACGAAAGUCACUAGGACCGGGACCGAUGACU [TrypBS 1 #SwitchBubble #K4Middle] | 744 nM | 1080 nM | 899 nM | 946 nM | 207 nM
20 | UGUCAUUGGUCGGCCGCCACUAGGACCGGGAGUAACCUAGUGAUGUUAGUGUGCUCGGCCGCCACUAGGACCGGGACCGAUGACU [KL-SSTryp-B22 #DoubleAptamer] | 180 nM | 164 nM | 157 nM | 165 nM | 103 nM
21 | UGUCAUUGGUCGGCCGCCACUCCAUAAAGAGUGAUGUUCUAAAAGACGGAUCGAAAGAUCUGUCGGAGGACCGGGACCGAUGACU [FiskerMod 4 - Jieux - Same State - Tryptophan B] | 1190 nM | 555 nM | 1090 nM | 549 nM | 243 nM

Row | Sequence | apparent KD of K4 kissing-loop reporter (input ligand: FMN 200 uM) | apparent KD of K4 kissing-loop reporter (input ligand: arginine 13.2 mM) | apparent KD of K4 kissing-loop reporter (input ligand: none) | apparent KD of K4 kissing-loop reporter [1] | apparent KD of K4 kissing-loop reporter [2]
22 | UGUCAUUGGUCGGCCGCCACUUUGUAUGGAGUGAUGUUUUGUAGAUUGUGUUGAAAGGUGUGGUGAAGGACCGGGACCGAUGACU [FiskerMod 24 - Jieux - Same State - Tryptophan B] | 1070 nM | 652 nM | 922 nM | 841 nM | 749 nM
23 | UGUGAACAAAAGUAGAGUGGACCACUAUAGCGAGGACCGGUACGGCCGCCACUCGUGCAUGAAUUCAGUGAUGUUGAAAAGAGCU [whbob_EX_Tryp_A_t12] | 258 nM | 375 nM | 330 nM | 364 nM | 185 nM
24 | UGUGCUGUGUAGUGUAAUGUUAUGCGGGAUACCAGAGUCUUUUUAUUCCCUUGGCAGCUUGAGUGAUGUUUGAUGCUGUUCUUGU [uujmullin] | 303 nM | 305 nM | 350 nM | 371 nM | 287 nM
25 | UGUGGAGAAUAUGAUACCAGCAGAGAGAGAGAGGAAGUAUAGUGAUGUUAUAUGAGAGAAUGCCCUUGGCAGCAUAAGAAGAAGG [SSTheophylB.C] | 144 nM | 119 nM | 140 nM | 216 nM | 192 nM
26 | UGUGGAGGAUAUGAUACCAGCAGUGAGAGAGAGGAAGUAUAGUGAUGUUAUAUGAGAGAAUGCCCUUGGCAGCGUGUGUAGUGGG [SSTheophylB.K] | 184 nM | 137 nM | 146 nM | 176 nM | 145 nM
27 | UGUGUACCGGGAAGGAGCGUGAAUGAUAAUGGAUAUAGUGAUGUUAUAUAUACGAACGAAUCGCAGGUAGGUCGCCCGGAUCCCU [SSArgB.X] | 808 nM | 494 nM | 639 nM | 559 nM | 576 nM
28 | UGUGUUUACCUGACUCAGUGAUGUUGAGAAGGAGCGUGCGAACGCACAGGUAGGUCGCUCAACCUAAAUUCAGGUGAGCACUAAA | 430 nM | 443 nM | 499 nM | 611 nM | 398 nM
29 | UUAGAGAUCUCAGGAUAUCAGUGAUGUUGGUUUCCAGAUCUGAGAUAGAAUUCUAUCUCAGAUCAAUGAGAAGGGAGAUCUCAUU [AK4.1 Exc FMN B] | 535 nM | 128 nM | 151 nM | 132 nM | 123 nM
30 | UUAGAUGAUUCAUCAAGAUUGAUGAGGAAACGAGGACCGGUACGGCCGCCACUCGAGUGAUGUUCGAGAACCUCAUCAAUCAAUU [AK4.4 Exc Tryptophan A] | 162 nM | 150 nM | 154 nM | 154 nM | 333 nM
31 | UUAGUCAGAUUAUUAUUAGCCUGCGAGUCUAAGGAUAUCCGAAUUCGGAGAAGGUAGUGAUGUUACUUUGGCAGGCACUGACAUU [AK9 Exc FMN A] | 807 nM | 357 nM | 431 nM | 414 nM | 351 nM
32 | UUAUAUACGAGUGAUGUUCGUUAUUUAUCAGAGGAUAUGCUUAAAUGCAGAAGGCUGUUUUUCUAUUUGAUAUUAAAUUUUAUAA [JR_Nu3_ExcFMNA_Sub027] | 81.6 nM | 89.3 nM | 69.6 nM | 81.1 nM | 58.1 nM
33 | UUAUAUAUAUUAGAUACCAGUUUAAUGGAAACAAAUUAUGUUAUGAGUGAUGUUCAUGUAAGCCCUUGGCAGCUGGUAUGGGUUU [KL-XTheo-B18] | 235 nM | 305 nM | 237 nM | 322 nM | 207 nM
34 | UUCCGGGCCGAAGGAUAUUGGAGUGAUGUUUCAAGACGUUCGUCCCAGCCCAUAGUAACUAUCGCCCAAGAAGGUCGUAUUGAAU [theeternabot_exclusion_KL_FMN_B_13] | 227 nM | 177 nM | 243 nM | 189 nM | 157 nM
35 | UUCGAUCAGUGAUGUUGAUCAAUAGUCGAAGGAGCGCUAUAGAUAGCAGGUAGGUCGCGACUACAAGGUGUUAAGACACCUCGAA [Arg A SS t9] | 505 nM | 430 nM | 525 nM | 443 nM | 431 nM
36 | UUCUUGAUGGAAACAUCGAGAAUUACUGAUACCAGUAUCGAUAGAUACCCUUGGCAGCAGAAUCAGUAAUAACGAGUGAUGUUCG [Ex Theophylline A K4 4] | 313 nM | 254 nM | 304 nM | 321 nM | 243 nM
37 | UUGGUCUUUUAAGGAUAUCAUACUCCACUGAGCGAGUGAUGUUCGCUCCUGUUACGCCUGGGACCGUGAGAAGGUAAAGUACCGU [theeternabot_sameState_KL_FMN_B_5] | 149 nM | 138 nM | 163 nM | 147 nM | 137 nM
38 | UUGUUUGGUUGAGAGGUUGGGCGAGAUGAUACCAGUAGAGAAGAGUACCCUUGGCAGCAUAGGAGAGAUAUAGUGAUGUUGUAUA [SSTheophA.R] | 487 nM | 424 nM | 420 nM | 525 nM | 402 nM
39 | UUUAACGAGUGAUGUUCGAAGAGUAAUGGUGAGGAUAUCGAUUUUUCGAGAAGGCACCUCGAAGUGAUACGAAAGUAUCGCUUCG [FMN A 5] | 171 nM | 266 nM | 266 nM | 269 nM | 181 nM
40 | UUUAUAAUGUCGGCCGCCACUGGAUUAAUAUUUGUAUAAUCUAGUUCAAAGUGAUGUUUUGAGUCCAGGACCGGGACAUUUGUUA [JR_ExcTryptoB_Sub003] | 570 nM | 490 nM | 582 nM | 509 nM | 407 nM
41 | UUUAUUUUCUGAGGAUAUCGUUUUACUGAAGUGAUGUUUCAGUAUUUUCAUAUUAUAUAUAAUUUUCGAGAAGGCAGUAUUAUUA [JR_Nu_SSFMNB_Sub027] | 83.5 nM | 60.4 nM | 63.7 nM | 72.2 nM | 64.3 nM
42 | UUUCCAGUGAUGUUGGAGAAAACCGAGGAAGGAGCGGACUCUUGUCCAGGUAGGUCGCCUCGUCUCCCAUUGGCAGAGCGGACCC [Enlaonbian] | 232 nM | 239 nM | 249 nM | 574 nM | 211 nM
